This is an account of results in patent EP4763988A1 (Minghui Pharmaceutical (Hangzhou) Ltd., dated 2025).

Where two headings read alike, the source gives them in different places.

Experiment [1] addresses T1, Human CDCP1, His Tag (KACTUS, Cat.No. CDC-HM101) (human, UniProt Q9H5V8 30-667, limits assumed).
T1 construct: Bought protein coated on ELISA plates; also called human CDCP1 antigen; CDCP1 antigen; not shown: His tag
T1 sequence (looked up): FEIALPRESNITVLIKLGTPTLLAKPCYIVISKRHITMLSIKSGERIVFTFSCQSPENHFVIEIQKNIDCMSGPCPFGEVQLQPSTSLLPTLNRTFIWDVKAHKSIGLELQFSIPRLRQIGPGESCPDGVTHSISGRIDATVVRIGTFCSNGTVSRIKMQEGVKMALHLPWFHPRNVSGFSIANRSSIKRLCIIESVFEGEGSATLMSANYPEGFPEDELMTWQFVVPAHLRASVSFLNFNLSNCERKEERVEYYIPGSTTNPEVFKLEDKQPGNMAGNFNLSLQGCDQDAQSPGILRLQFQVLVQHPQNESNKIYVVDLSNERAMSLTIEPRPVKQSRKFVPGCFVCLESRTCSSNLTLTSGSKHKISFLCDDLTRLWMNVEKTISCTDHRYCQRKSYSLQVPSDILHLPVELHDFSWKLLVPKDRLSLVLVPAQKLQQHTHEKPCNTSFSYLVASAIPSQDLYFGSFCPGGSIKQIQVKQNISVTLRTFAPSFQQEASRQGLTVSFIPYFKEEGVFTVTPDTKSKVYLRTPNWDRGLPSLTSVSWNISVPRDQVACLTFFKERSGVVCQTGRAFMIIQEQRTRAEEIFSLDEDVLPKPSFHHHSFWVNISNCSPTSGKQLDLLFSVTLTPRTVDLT
The experiment can be described thus: ELISA, plate-coated CDCP1 His Tag 0.5 ug/mL, four-parameter fit. Background: In an ELISA, binding on a coated surface is turned into a signal by an enzyme label.

The target in experiment [2] is T1, Human CDCP1, His Tag (KACTUS, Cat.No. …). Described as above. This is another data set of the same source.
The target in experiment [3] is T2, Human CDCP1, His Tag (KACTUS, Cat.No. CDC-HM101) (human) (UniProt Q9H5V8).
T2 sequence (looked up): T1 sequence (looked up)
The experiment can be described thus: ELISA of E. coli lysate supernatant of the clone on human CDCP1 antigen.

Experiment [4] has as its target T3, human CDCP1 endogenously expressed on tumor cells (HCT116, SW480, HT-29, LNCaP) (human, UniProt Q9H5V8 30-836).
T3 construct: whole, on cells; also called fl-CDCP1
T3 sequence (looked up): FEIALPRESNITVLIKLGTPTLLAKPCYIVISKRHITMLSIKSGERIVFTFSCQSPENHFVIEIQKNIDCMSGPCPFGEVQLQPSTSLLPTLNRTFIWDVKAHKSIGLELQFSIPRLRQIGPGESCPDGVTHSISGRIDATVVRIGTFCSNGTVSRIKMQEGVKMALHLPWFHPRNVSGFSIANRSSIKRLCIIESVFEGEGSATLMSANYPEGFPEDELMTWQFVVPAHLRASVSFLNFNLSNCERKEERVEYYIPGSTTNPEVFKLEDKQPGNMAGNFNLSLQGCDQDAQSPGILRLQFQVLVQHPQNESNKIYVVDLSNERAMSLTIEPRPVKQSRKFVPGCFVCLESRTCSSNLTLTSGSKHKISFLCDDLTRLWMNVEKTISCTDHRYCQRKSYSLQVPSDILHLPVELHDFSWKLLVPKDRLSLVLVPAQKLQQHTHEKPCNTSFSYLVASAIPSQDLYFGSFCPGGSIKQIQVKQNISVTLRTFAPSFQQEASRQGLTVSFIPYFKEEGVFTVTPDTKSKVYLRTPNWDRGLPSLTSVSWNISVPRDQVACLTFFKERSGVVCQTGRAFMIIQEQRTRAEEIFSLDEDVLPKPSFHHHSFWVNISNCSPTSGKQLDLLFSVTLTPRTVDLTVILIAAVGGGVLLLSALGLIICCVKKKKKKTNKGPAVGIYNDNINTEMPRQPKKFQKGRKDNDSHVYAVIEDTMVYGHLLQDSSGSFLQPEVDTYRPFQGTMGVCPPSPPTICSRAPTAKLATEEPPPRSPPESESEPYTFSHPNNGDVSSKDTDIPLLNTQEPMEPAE
The experiment in a line: flow cytometry on SW480 cells endogenously expressing human CDCP1. (In general: Flow cytometry measures light scatter and fluorescence of single cells or particles in a stream.)

The target of experiment [5] is T3, human CDCP1 endogenously expressed on …. The experiment can be described thus: cell-based or functional assay.
For experiment [6] the target is unchanged. The experiment can be described thus: flow cytometry on HCT116 cells endogenously expressing human CDCP1.
The target is the same in experiment [7]. The experiment in a line: flow cytometry on LNCaP cells endogenously expressing human CDCP1.

B1: 25A11 (MHAB10-PC1) (antibody, human IgG1, kappa, L234A L235A, V domains shown)
VH: EVQLQQPGAELVKPGASVKMSCKASGYTFTSYYMYWVKQRPGQGLEWIGEINPSHGGTNFNEKFKNKATLTVDKSSSTVYMQLSSLTSEDSAVYYCTRGGNYPYFAMDYWGQGTSVTVSS
VL: DIQMTQTTSSLSASLGDRVTISCRASQDISNYLNWYQQKPDGTVKLLIYYTSRLHSGVPSRFSGSGSGTDYSLTISNLEQEDIATYFCQQGNTLPWTFGGGTKLEIKR
notes: Variable regions from US20080008719A1 on Human IgG1-Kappa constant regions; MW printed 146kDa; also called positive control antibody
The term EC50 denotes the concentration giving half of the maximal effect. Consider B1, for which, in experiment [1], the EC50 was 0.0115 µg/mL, the Top was determined as 1.9 OD450 and the bottom is 0.0395 OD450. Further, in experiment [2], the response was half-maximal at 0.0101 µg/mL (EC50), the Top turned out to be 1.35 OD450 and the bottom came out at 0.041 OD450.

B2: MH1-6-C-2-50 (VHH)
VHH: QLQLVESGGGLVQPGGSLRLSCAASGSDVSANGMVWHRQAPGKQREWVAVISSSGSTNYADSVKGRFTISRDSDKNTMYLQMNNLKPEDTAVYLCGVAHYGQTYWGKGTLVTVSS
Turning to B2, in experiment [3], the OD450 was 0.304.

B3: h14A043 (MHAB10-PC2) (antibody, human IgG1, kappa, L234A L235A, V domains shown)
VH: QVQLVQSGAEVKKPGSSVKVSCKASGFNIKDYYMNWVRQAPGQGLEWIGWIDPENANTIYDPKFQGRVTITADESTSTAYMELSSLRSEDTAVYYCYGSSYRFTYWGQGTLVTVSS
VL: EIVLTQSPATLSLSPGERATLSCSASSSVSYLYWYQQKPGQAPRPWIYLTSNLASGVPARFSGSGSGTDFTLTISSLEPEDFAVYYCQQWSSNPFTFGGGTKVEIKR
notes: Variable regions from US20230050380A1 on Human IgG1-Kappa constant regions; also called positive control antibody
Regarding B3, the EC50 in experiment [4] amounted to 2.42 µg/mL; in experiment [6], 11.9 µg/mL; in experiment [7], 2.21 µg/mL. In addition, the “EC50 (pM), endocytosis-mediated cell killing (Fab-ZAP, HCT116 cells)” value in experiment [5] is 41 pM.
